± gives the standard error. Variants at the floor of the assay were thinned out.
B1: glmS ribozyme (parent)
chain: AUAAAAGCGCCAGAACUACAGAAAUGUAGUUGACGAGGAGGAGGUUUAUCGAAUUUUCGGCGGAUGCCUCCAAA

Columns and labels:
Conditions in all cases: with glucosamine-6-phosphate
glucosamine-6-phosphate [1] = variants of: B1; assay: self-cleavage kobs at 40 uM GlcN6P; higher = faster cleavage; RNA array
How it was run: (§1)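 E. coli RNA polymerase transcribed barcoded ribozyme variants in situ on sequenced MiSeq chips, which were tracked via a hybridised Cy3 probe at 37 °C. Tiles were imaged over ~14 h after glucosamine-6-phosphate (40 μM to 10 mM) in HEPES/KCl/Mg(OAc)2 buffer was flowed in. Normalised per-tile medians were fit to one- or two-exponential decays for kobs, and kcat and KM came from weighted Michaelis–Menten fits.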

glucosamine-6-phosphate [2] = variants of: B1; assay: self-cleavage kobs at 160 uM GlcN6P; higher = faster cleavage; RNA array
How it was run: as §1

glucosamine-6-phosphate [3] = variants of: B1; assay: self-cleavage kobs at 640 uM GlcN6P; higher = faster cleavage; RNA array
How it was run: as §1

glucosamine-6-phosphate [4] = variants of: B1; assay: self-cleavage kobs at 2500 uM GlcN6P; higher = faster cleavage; RNA array
How it was run: as §1

glucosamine-6-phosphate [5] = variants of: B1; assay: self-cleavage kobs at 10000 uM GlcN6P; higher = faster cleavage; RNA array
How it was run: as §1

Row | Variant | self-cleavage kobs at 40 uM GlcN6P (glucosamine-6-phosphate [1]) [s⁻¹] | self-cleavage kobs at 160 uM GlcN6P (glucosamine-6-phosphate [2]) [s⁻¹] | self-cleavage kobs at 640 uM GlcN6P (glucosamine-6-phosphate [3]) [s⁻¹] | self-cleavage kobs at 2500 uM GlcN6P (glucosamine-6-phosphate [4]) [s⁻¹] | self-cleavage kobs at 10000 uM GlcN6P (glucosamine-6-phosphate [5]) [s⁻¹]
1 | G9C G37U | < 1e-05 | < 1e-05 | < 1e-05 | < 1e-05 | 
2 | C10G G29C G40A | < 1e-05 |  |  |  | < 1e-05
3 | C8U U65G | < 1e-05 | < 1e-05 | < 1e-05 | < 1e-05 | < 1e-05
4 | G9C U45C | < 1e-05 |  |  | < 1e-05 | 
5 | C10G G13U A14U | < 1e-05 |  |  |  | 
6 | C10G A14G C16A G41C | < 1e-05 |  |  |  | < 1e-05
7 | G9C G59C | < 1e-05 | < 1e-05 | < 1e-05 | < 1e-05 | < 1e-05
8 | C10U G13A C68A | < 1e-05 |  |  |  | 
9 | C10A G40U | < 1e-05 | < 1e-05 | < 1e-05 |  | < 1e-05
10 | C10A G37C C68U | < 1e-05 |  |  |  | 
11 | C8U C16U C50G G60A G66U | 0.000197 ± 6.5e-05 | 9.7e-05 ± 4.4e-05 |  |  | 0.000101 ± 2.7e-05
12 | C10U A14G A15G G43A U45G A52G A64G | < 1e-05 | < 1e-05 |  |  | < 1e-05
13 | G9A A42C C71G | < 1e-05 |  |  |  | 
14 | C8U G32A G41U | < 1e-05 | < 1e-05 | < 1e-05 | < 1e-05 | < 1e-05
15 | C10U C16U G38A A48G | < 1e-05 |  |  |  | < 1e-05
16 | G9U G32C A42U | < 1e-05 |  | < 1e-05 |  | < 1e-05
17 | C10A U47C U54C G66U | < 1e-05 |  |  |  | < 1e-05
18 | G9C C58G C68A | < 1e-05 |  |  |  | 
19 | G9U A33G G38U G44U C58A | < 1e-05 |  |  |  | 
20 | C10G C34U | < 1e-05 | < 1e-05 | < 1e-05 | < 1e-05 | < 1e-05
21 | G9U A15U | < 1e-05 | < 1e-05 | < 1e-05 |  | 
22 | G9U G41A | < 1e-05 | < 1e-05 | < 1e-05 | < 1e-05 | < 1e-05
23 | G9U G41U | < 1e-05 | < 1e-05 | < 1e-05 | < 1e-05 | < 1e-05

Row | Variant | self-cleavage kobs at 40 uM GlcN6P (glucosamine-6-phosphate [1]) [s⁻¹] | self-cleavage kobs at 160 uM GlcN6P (glucosamine-6-phosphate [2]) [s⁻¹] | self-cleavage kobs at 640 uM GlcN6P (glucosamine-6-phosphate [3]) [s⁻¹] | self-cleavage kobs at 2500 uM GlcN6P (glucosamine-6-phosphate [4]) [s⁻¹] | self-cleavage kobs at 10000 uM GlcN6P (glucosamine-6-phosphate [5]) [s⁻¹]
24 | C10G A14C A36G U55A C71U | < 1e-05 |  |  |  | 
25 | C10A G41C A48C C58G | < 1e-05 |  |  |  | 
26 | C10U A12G G32U A36U C70U | < 1e-05 |  |  |  | 
27 | C10G U46G | < 1e-05 | < 1e-05 | < 1e-05 | < 1e-05 | 
28 | C8U C68A | < 1e-05 |  | < 1e-05 | < 1e-05 | 
29 | C8U C61U | < 1e-05 | < 1e-05 | < 1e-05 | < 1e-05 | < 1e-05
30 | G9A C10U A14U U31C G40C C70A | < 1e-05 |  |  |  | < 1e-05
31 | G9U A33U A52U U56G | < 1e-05 |  |  |  | 
32 | G9U U56G C71A | < 1e-05 |  |  |  | 
33 | G9U G51A | < 1e-05 | < 1e-05 | < 1e-05 |  | < 1e-05
34 | G9A G32C A52U | < 1e-05 |  |  |  | < 1e-05
35 | G9C C71U | < 1e-05 | < 1e-05 | < 1e-05 | < 1e-05 | < 1e-05
36 | G9U A12U C70U | < 1e-05 |  |  |  | 
37 | C10G U54G | < 1e-05 | < 1e-05 | < 1e-05 | < 1e-05 | 
38 | C10A U30G | < 1e-05 | < 1e-05 |  |  | 
39 | C8U G13C | < 1e-05 | < 1e-05 | < 1e-05 |  | < 1e-05
40 | G9A U31G | < 1e-05 | < 1e-05 |  | < 1e-05 | 
41 | C8U G35U A39U G43U | < 1e-05 |  | < 1e-05 |  | 
42 | C10G G51A | < 1e-05 |  | < 1e-05 | < 1e-05 | < 1e-05
43 | C10U C50G U57G | 0.000105 ± 2.4e-05 |  |  |  | 4.71e-05 ± 1.6e-05
44 | G9A C16G A52U | < 1e-05 |  |  |  | < 1e-05
45 | C10A G13A U56C | < 1e-05 |  |  |  | 
46 | G9A G43U | < 1e-05 | < 1e-05 | < 1e-05 | < 1e-05 | 

Row | Variant | self-cleavage kobs at 40 uM GlcN6P (glucosamine-6-phosphate [1]) [s⁻¹] | self-cleavage kobs at 160 uM GlcN6P (glucosamine-6-phosphate [2]) [s⁻¹] | self-cleavage kobs at 640 uM GlcN6P (glucosamine-6-phosphate [3]) [s⁻¹] | self-cleavage kobs at 2500 uM GlcN6P (glucosamine-6-phosphate [4]) [s⁻¹] | self-cleavage kobs at 10000 uM GlcN6P (glucosamine-6-phosphate [5]) [s⁻¹]
47 | G9A G43A | < 1e-05 |  | < 1e-05 | < 1e-05 | 
48 | C10A G29A C67G | 0.000103 ± 3.7e-05 |  |  |  | 0.000102 ± 3e-05
49 | G9C A12C A14U U49G | < 1e-05 |  |  | < 1e-05 | 
50 | C10G U31C | < 1e-05 | < 1e-05 |  |  | < 1e-05
51 | C8U G29U | < 1e-05 | < 1e-05 | < 1e-05 | < 1e-05 | < 1e-05
52 | G9A A42C | < 1e-05 | < 1e-05 | < 1e-05 | < 1e-05 | 
53 | C10U G13C A36C | < 1e-05 |  |  |  | 
54 | C8U G9A C16U C50U A52U | < 1e-05 |  |  | < 1e-05 | < 1e-05
55 | C10G G43C U46A G60A G62C | < 1e-05 |  |  |  | 
56 | C10U A33G | < 1e-05 | < 1e-05 | < 1e-05 |  | < 1e-05
57 | C10G A15G U30G G63U | < 1e-05 |  | < 1e-05 |  | < 1e-05
58 | C10G U47A G60U C61U | < 1e-05 |  |  |  | 
59 | G9A C11G | < 1e-05 | < 1e-05 | < 1e-05 | < 1e-05 | < 1e-05
60 | C8U G44C A52U C61A | < 1e-05 |  |  | < 1e-05 | < 1e-05
61 | C8U G13C G51A | < 1e-05 |  |  | < 1e-05 | < 1e-05
62 | C10G U30A A42U G51A | < 1e-05 |  |  |  | 
63 | C10U C61U | < 1e-05 |  | < 1e-05 |  | < 1e-05
64 | C10U C58G | < 1e-05 | < 1e-05 |  | < 1e-05 | < 1e-05
65 | C8U G44U | < 1e-05 | < 1e-05 | < 1e-05 | < 1e-05 | < 1e-05
66 | C8U G44A | < 1e-05 | < 1e-05 | < 1e-05 | < 1e-05 | 
67 | G9A U55G | < 1e-05 | < 1e-05 |  |  | 
68 | G9C A14U G51A C70G | < 1e-05 |  |  |  | 
69 | C10U A12G G43U | < 1e-05 |  | < 1e-05 | < 1e-05 | < 1e-05

Row | Variant | self-cleavage kobs at 40 uM GlcN6P (glucosamine-6-phosphate [1]) [s⁻¹] | self-cleavage kobs at 160 uM GlcN6P (glucosamine-6-phosphate [2]) [s⁻¹] | self-cleavage kobs at 640 uM GlcN6P (glucosamine-6-phosphate [3]) [s⁻¹] | self-cleavage kobs at 2500 uM GlcN6P (glucosamine-6-phosphate [4]) [s⁻¹] | self-cleavage kobs at 10000 uM GlcN6P (glucosamine-6-phosphate [5]) [s⁻¹]
70 | G9A C16U | < 1e-05 | < 1e-05 | < 1e-05 | < 1e-05 | 3.09e-05 ± 1.5e-05
71 | C10A G43U U45A | < 1e-05 |  | < 1e-05 | < 1e-05 | 
72 | C10A G60A | < 1e-05 | < 1e-05 | < 1e-05 | < 1e-05 | 
73 | G9U C10G | < 1e-05 | < 1e-05 | < 1e-05 | < 1e-05 | < 1e-05
74 | C10A U46G U47G C50G C58G C68U | 0.000116 ± 2.2e-05 |  |  |  | 0.000242 ± 4.3e-05
75 | C10A A12U | < 1e-05 |  |  |  | 
76 | C10U C11G U65G | < 1e-05 |  |  |  | 
77 | C10A A36C | < 1e-05 |  | < 1e-05 | < 1e-05 | < 1e-05
78 | C10A G41C | < 1e-05 | < 1e-05 | < 1e-05 | < 1e-05 | < 1e-05
79 | C10G C50G C58A C61A | 9.48e-05 ± 2.9e-05 |  |  |  | 5.26e-05 ± 2e-05
80 | C10G G29A G37A G38U G41C C71U | < 1e-05 |  |  |  | < 1e-05
81 | C10U C50G C70G | 5.33e-05 ± 1.6e-05 |  |  |  | 
82 | G9C G62U | < 1e-05 | < 1e-05 | < 1e-05 |  | < 1e-05
83 | G9A C10G C68U | < 1e-05 |  |  |  | 
84 | G9A A14G U30A | < 1e-05 | < 1e-05 | < 1e-05 |  | 4.06e-05 ± 1.5e-05
85 | C10U A15C G43U C50U U57G G59A | < 1e-05 | < 1e-05 | < 1e-05 | < 1e-05 | < 1e-05
86 | G9A A14U C61A | < 1e-05 |  |  | < 1e-05 | 
87 | C10G G29A U54G | < 1e-05 |  |  |  | 
88 | C10U A15G C67G | < 1e-05 |  | 6.46e-05 ± 2.3e-05 |  | 
89 | C8U G29C C50A | < 1e-05 |  | < 1e-05 |  | 
90 | G9A A15G | < 1e-05 | < 1e-05 | < 1e-05 |  | 2.27e-05 ± 1.1e-05
91 | G9A C16G G63A A64G | < 1e-05 | < 1e-05 | < 1e-05 | < 1e-05 | 
